One molecule from patent US20110150875A1 can be followed below.

In assay [1] the target is PCSK9-FLAG (Pan troglodytes (Chimpanzee); Homo sapiens (Human)) (UniProt A8T644). Nature of the assay: AlphaScreen, His-tagged matrilin-2 at log [Matrilin] uM -0.9089195 with PCSK9-FLAG; triplicate, SD 3028. (In general: Bead proximity is the source of the signal in Alpha formats.)
The target is the same in assay [2]. Briefly: AlphaScreen, His-tagged matrilin-2 at log [Matrilin] uM -2.817405 with PCSK9-FLAG; triplicate, SD 412.
Assay [3] has the same target. Nature of the assay: AlphaScreen, His-tagged matrilin-2 at log [Matrilin] uM -1.863162 with PCSK9-FLAG; triplicate, SD 1131.
The target is the same in assay [4]. Briefly: AlphaScreen, His-tagged matrilin-2 at log [Matrilin] uM -1.386041 with PCSK9-FLAG; triplicate, SD 1634.
For assay [5] the target is unchanged. Briefly: AlphaScreen competition, matrilin-2 at 0.42 nM; inhibition of PCSK9-Flag binding to His-tagged LDL receptor (competitor LDLR), relative to maximum signal without matrilin-2.
For assay [6] the target is unchanged. Briefly: AlphaScreen, His-tagged matrilin-2 at log [Matrilin] uM -3.294526 with PCSK9-FLAG; triplicate, SD 495.
For assay [7] the target is unchanged. Nature of the assay: AlphaScreen, His-tagged matrilin-2 at log [Matrilin] uM -2.340283 with PCSK9-FLAG; triplicate, SD 469.
For assay [8] the target is unchanged. Nature of the assay: AlphaScreen competition, matrilin-2 at 1.3 nM; inhibition of PCSK9-Flag binding to His-tagged LDL receptor (competitor LDLR), relative to maximum signal without matrilin-2.
The target is the same in assay [9]. Nature of the assay: AlphaScreen, His-tagged matrilin-2 at log [Matrilin] uM -0.4317983 with PCSK9-FLAG; triplicate, SD 2548.
The target is the same in assay [10]. Nature of the assay: AlphaScreen competition, matrilin-2 at 0.14 nM; inhibition of PCSK9-Flag binding to His-tagged LDL receptor (competitor LDLR), relative to maximum signal without matrilin-2.
The target is the same in assay [11]. Briefly: AlphaScreen competition, matrilin-2 at 34 nM; inhibition of PCSK9-Flag binding to His-tagged LDL receptor (competitor LDLR), relative to maximum signal without matrilin-2.
Assay [12] shares this target. Briefly: AlphaScreen competition, matrilin-2 at 3.8 nM; inhibition of PCSK9-Flag binding to His-tagged LDL receptor (competitor LDLR), relative to maximum signal without matrilin-2.
Assay [13] has the same target. Briefly: AlphaScreen, His-tagged matrilin-2 at log [Matrilin] uM -3.771647 with PCSK9-FLAG; triplicate, SD 220.
Assay [14] shares this target. Briefly: AlphaScreen competition, matrilin-2 at 11 nM; inhibition of PCSK9-Flag binding to His-tagged LDL receptor (competitor LDLR), relative to maximum signal without matrilin-2.

Sequence of UniProt A8T644 (A8T644 31-152 limits assumed, chain 1 of 2): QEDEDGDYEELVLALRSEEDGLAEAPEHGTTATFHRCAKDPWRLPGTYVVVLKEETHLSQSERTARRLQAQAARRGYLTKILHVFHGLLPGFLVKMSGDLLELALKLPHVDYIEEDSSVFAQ
Sequence of UniProt A8T644 (A8T644 other isoform, or with tags, fused parts or gaps limits assumed, chain 2 of 2): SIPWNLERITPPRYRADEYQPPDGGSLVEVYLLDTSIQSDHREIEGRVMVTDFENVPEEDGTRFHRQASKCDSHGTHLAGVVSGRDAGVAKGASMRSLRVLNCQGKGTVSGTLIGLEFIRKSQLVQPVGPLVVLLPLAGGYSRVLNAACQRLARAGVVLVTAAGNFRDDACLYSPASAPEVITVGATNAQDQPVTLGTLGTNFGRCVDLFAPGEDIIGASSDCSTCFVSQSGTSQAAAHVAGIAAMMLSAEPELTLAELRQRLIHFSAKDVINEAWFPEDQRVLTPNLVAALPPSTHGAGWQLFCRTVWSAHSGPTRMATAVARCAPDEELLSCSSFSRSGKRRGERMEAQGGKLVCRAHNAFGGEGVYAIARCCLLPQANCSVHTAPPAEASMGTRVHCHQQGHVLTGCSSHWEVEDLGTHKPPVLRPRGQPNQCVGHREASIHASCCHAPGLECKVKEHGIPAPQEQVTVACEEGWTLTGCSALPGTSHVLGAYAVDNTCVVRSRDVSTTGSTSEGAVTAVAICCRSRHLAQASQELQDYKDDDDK

B1: His-tagged recombinant human matrilin-2 (mature, short isoform, Arg 24-Arg 937; R&D Systems Catalog Number 3044-MN) (protein, not shown: small tags and cut ends)
chain: RERSRGRSISRGRHARTHPQTALLESSCENKRADLVFIIDSSRSVNTHDYAKVKEFIVDILQFLDIGPDVTRVGLLQYGSTVKNEFSLKTFKRKSEVERAVKRMRHLSTGTMTGLAIQYALNIAFSEAEGARPLRENVPRVIMIVTDGRPQDSVAEVAAKARDTGILIFAIGVGQVDFNTLKSIGSEPHEDHVFLVANFSQIETLTSVFQKKLCTAHMCSTLEHNCAHFCINIPGSYVCRCKQGYILNSDQTTCRIQDLCAMEDHNCEQLCVNVPGSFVCQCYSGYALAEDGKRCVAVDYCASENHGCEHECVNADGSYLCQCHEGFALNPDKKTCTKIDYCASSNHGCQHECVNTDDSYSCHCLKGFTLNPDKKTCRRINYCALNKPGCEHECVNMEESYYCRCHRGYTLDPNGKTCSRVDHCAQQDHGCEQLCLNTEDSFVCQCSEGFLINEDLKTCSRVDYCLLSDHGCEYSCVNMDRSFACQCPEGHVLRSDGKTCAKLDSCALGDHGCEHSCVSSEDSFVCQCFEGYILREDGKTCRRKDVCQAIDHGCEHICVNSDDSYTCECLEGFRLAEDGKRCRRKDVCKSTHHGCEHICVNNGNSYICKCSEGFVLAEDGRRCKKCTEGPIDLVFVIDGSKSLGEENFEVVKQFVTGIIDSLTISPKAARVGLLQYSTQVHTEFTLRNFNSAKDMKKAVAHMKYMGKGSMTGLALKHMFERSFTQGEGARPLSTRVPRAAIVFTDGRAQDDVSEWASKAKANGITMYAVGVGKAIEEELQEIASEPTNKHLFYAEDFSTMDEISEKLKKGICEALEDSDGRQDSPAGELPKTVQQPTVQHRYLFEEDNLLRSTQKLSHSTKPSGSPLEEKHDQCKCENLIMFQNLANEEVRKLTQRLEEMTQRMEALENRLRYR
A word on the % inhibition: it is the change of the read-out against control, counted positive when it falls. On to B1, for which the Alphascreen Signal (counts per second) in assay [1] turned out to be 222000; in assay [2] it was 12900; in assay [3], 14100; in [4] it was 54000; in assay [6], 18800; in assay [7], 10100. The results for the Alphascreen Signal (counts per second) in assay [9] and in assay [13] were 213000 and 20200, respectively. The % inhibition in assay [5] is -0.4%; in assay [8], 5.2%; in assay [10], 0.1%; in assay [11], 50.7%; in [12], 17.1%; in assay [14] it was 36%.
